Data reported in patent publication US20160200782A1 (MOERAE MATRIX, published 2016).

T1: Tec(h)activated (human, UniProt P42680 1-631, limits assumed)
T1 sequence (looked up): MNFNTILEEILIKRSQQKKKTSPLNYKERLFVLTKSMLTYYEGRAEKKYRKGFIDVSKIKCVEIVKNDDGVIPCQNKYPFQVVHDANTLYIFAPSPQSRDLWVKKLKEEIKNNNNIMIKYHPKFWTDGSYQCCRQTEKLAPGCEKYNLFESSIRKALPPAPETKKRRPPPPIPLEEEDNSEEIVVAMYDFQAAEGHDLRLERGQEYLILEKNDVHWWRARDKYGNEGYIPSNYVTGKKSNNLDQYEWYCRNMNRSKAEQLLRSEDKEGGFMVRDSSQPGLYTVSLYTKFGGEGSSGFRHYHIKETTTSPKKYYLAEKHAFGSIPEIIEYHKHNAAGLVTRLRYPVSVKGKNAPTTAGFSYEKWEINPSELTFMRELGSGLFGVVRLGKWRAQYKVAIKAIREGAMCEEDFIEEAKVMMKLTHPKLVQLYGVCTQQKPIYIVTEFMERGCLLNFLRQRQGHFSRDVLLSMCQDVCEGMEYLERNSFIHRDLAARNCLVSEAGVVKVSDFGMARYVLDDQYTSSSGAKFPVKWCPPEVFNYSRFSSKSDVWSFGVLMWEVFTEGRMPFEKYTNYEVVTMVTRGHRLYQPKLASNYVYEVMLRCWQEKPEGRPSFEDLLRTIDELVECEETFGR

T2: ARK5(h) (human, UniProt O60285 1-661, limits assumed)
T2 sequence (looked up): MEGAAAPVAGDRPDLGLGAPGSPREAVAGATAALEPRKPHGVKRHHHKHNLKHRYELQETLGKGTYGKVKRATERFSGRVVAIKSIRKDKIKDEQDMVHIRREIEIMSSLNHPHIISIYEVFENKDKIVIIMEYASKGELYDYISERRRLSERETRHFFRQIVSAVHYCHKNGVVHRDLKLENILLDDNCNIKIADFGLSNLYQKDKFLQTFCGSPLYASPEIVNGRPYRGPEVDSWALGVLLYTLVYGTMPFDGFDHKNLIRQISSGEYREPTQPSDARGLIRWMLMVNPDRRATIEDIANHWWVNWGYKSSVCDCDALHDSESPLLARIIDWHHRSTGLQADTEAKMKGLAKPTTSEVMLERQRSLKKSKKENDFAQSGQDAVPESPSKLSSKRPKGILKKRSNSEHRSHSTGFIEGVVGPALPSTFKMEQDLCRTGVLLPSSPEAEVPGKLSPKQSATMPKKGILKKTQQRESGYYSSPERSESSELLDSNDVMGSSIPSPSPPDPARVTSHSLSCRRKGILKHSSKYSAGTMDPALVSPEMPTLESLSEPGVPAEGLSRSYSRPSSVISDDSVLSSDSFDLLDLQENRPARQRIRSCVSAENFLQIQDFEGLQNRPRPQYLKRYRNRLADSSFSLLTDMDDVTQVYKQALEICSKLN

T3: PKCζ(h) (human, UniProt Q05513 1-592)
T3 sequence (looked up): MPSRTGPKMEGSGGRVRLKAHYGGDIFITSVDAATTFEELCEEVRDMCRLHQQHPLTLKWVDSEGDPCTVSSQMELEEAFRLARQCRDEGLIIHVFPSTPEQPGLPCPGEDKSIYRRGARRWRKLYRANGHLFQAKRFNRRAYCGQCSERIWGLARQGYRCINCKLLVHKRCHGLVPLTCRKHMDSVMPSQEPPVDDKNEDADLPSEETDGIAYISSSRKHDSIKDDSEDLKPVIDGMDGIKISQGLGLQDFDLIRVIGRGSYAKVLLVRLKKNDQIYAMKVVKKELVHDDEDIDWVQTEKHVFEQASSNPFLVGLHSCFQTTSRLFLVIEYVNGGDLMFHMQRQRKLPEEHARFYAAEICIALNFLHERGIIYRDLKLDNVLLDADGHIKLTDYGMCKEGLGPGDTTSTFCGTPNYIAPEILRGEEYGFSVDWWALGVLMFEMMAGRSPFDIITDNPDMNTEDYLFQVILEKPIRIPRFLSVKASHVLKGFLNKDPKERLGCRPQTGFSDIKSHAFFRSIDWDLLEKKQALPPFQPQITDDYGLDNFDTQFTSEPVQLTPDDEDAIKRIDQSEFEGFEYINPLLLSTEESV

T4: Ret(h) (human, UniProt P07949 658-1114, limits assumed)
T4 sequence (looked up): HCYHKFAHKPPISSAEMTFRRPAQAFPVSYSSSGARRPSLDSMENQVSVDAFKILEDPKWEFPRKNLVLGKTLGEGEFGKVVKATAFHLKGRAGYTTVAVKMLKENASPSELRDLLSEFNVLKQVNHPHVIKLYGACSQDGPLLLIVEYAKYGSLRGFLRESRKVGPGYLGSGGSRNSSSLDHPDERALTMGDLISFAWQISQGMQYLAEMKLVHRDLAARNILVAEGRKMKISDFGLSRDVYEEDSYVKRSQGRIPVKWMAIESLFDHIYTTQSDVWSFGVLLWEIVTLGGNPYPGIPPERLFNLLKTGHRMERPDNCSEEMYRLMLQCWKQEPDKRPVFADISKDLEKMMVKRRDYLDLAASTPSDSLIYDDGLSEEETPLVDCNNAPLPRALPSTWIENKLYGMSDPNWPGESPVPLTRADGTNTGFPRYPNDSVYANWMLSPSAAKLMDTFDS


Tests used:
Experiment in all cases: cell-based or functional assay
PAK2(h) = PAK2(h) (human, UniProt Q13177 1-524, limits assumed)
IR(h) = IR(h) (human, UniProt P06213 1005-1310, limits assumed)
Tec(h)activated = target: T1, Tec(h)activated
ARK5(h) = target: T2, ARK5(h)
Fes(h) = Fes(h) (human, UniProt P07332 1-822, limits assumed)
PKCζ(h) = target: T3, PKCζ(h)
IR(h), activated = IR(h), activated (human, UniProt P06213 1005-1310, limits assumed)
Hck(h) activated = Hck(h) activated (human, UniProt P08631 251-518, limits assumed)
Ret(h) = target: T4, Ret(h)
MLK1(h) = MLK1(h) (human, UniProt P80192 132-413, limits assumed)
TrkB(h) = TrkB(h) (human, UniProt Q16620 455-822, limits assumed)
MSK1(h) = MSK1(h) (human, UniProt O75582 1-802, limits assumed)
Also: test concentration or dose not given here.

Chain of MLK1(h) (P80192 132-413 limits assumed): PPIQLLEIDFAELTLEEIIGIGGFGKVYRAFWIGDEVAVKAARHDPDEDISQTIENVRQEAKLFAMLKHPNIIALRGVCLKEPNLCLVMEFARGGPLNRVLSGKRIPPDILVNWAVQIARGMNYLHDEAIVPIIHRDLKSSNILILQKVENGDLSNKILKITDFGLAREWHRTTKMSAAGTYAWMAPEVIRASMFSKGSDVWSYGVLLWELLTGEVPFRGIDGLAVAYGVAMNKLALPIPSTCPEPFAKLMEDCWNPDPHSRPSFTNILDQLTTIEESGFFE
Chain of TrkB(h) (Q16620 455-822 limits assumed): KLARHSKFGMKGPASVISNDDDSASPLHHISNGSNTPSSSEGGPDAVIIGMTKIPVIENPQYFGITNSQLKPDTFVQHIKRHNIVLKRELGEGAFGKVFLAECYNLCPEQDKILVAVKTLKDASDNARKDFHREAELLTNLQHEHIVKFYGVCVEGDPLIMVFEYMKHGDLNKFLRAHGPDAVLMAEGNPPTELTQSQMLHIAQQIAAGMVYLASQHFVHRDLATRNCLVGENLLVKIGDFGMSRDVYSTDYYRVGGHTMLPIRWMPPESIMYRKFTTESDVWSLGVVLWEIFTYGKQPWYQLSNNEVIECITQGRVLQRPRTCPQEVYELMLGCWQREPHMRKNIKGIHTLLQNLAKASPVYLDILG
Chain of Hck(h) activated (P08631 251-518 limits assumed): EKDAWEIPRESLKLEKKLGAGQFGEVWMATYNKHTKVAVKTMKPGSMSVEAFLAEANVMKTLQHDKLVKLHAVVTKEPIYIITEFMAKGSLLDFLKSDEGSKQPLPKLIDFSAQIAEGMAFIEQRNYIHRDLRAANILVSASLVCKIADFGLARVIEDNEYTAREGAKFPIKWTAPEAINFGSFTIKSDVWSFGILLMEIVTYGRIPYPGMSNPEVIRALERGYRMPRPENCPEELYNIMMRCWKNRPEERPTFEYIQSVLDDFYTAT
Chain of MSK1(h) (O75582 whole entry): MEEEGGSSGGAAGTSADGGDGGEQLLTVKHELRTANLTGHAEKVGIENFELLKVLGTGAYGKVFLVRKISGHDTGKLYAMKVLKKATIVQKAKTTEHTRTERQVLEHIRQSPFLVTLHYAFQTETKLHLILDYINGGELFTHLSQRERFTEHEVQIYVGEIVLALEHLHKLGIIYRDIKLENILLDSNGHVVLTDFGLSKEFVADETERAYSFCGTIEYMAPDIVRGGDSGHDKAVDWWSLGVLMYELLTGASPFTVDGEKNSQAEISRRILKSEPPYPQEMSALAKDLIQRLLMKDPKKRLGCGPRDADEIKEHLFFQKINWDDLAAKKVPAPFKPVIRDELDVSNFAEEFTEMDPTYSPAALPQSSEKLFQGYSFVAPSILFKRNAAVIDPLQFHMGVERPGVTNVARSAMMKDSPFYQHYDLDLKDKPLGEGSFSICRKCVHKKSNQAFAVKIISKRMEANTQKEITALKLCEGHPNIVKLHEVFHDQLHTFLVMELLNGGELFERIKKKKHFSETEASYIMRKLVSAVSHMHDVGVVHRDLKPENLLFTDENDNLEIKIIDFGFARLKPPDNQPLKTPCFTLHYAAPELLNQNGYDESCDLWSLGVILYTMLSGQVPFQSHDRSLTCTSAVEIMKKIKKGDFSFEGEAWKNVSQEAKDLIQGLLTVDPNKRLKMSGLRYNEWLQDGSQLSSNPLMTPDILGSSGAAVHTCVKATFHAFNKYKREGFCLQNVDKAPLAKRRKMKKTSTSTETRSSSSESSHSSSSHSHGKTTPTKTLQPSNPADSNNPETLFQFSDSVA
Chain of IR(h), activated (P06213 1005-1310 limits assumed): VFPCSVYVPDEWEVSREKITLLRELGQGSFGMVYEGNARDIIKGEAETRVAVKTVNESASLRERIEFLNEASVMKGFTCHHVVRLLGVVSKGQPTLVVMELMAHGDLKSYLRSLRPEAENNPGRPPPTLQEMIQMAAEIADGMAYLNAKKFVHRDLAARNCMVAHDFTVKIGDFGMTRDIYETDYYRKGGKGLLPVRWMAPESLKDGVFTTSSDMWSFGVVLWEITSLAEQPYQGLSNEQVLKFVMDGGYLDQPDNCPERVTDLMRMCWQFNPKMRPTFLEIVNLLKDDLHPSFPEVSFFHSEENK
Chain of IR(h) (P06213 1005-1310 limits assumed): as above
Chain of Fes(h) (P07332 whole entry): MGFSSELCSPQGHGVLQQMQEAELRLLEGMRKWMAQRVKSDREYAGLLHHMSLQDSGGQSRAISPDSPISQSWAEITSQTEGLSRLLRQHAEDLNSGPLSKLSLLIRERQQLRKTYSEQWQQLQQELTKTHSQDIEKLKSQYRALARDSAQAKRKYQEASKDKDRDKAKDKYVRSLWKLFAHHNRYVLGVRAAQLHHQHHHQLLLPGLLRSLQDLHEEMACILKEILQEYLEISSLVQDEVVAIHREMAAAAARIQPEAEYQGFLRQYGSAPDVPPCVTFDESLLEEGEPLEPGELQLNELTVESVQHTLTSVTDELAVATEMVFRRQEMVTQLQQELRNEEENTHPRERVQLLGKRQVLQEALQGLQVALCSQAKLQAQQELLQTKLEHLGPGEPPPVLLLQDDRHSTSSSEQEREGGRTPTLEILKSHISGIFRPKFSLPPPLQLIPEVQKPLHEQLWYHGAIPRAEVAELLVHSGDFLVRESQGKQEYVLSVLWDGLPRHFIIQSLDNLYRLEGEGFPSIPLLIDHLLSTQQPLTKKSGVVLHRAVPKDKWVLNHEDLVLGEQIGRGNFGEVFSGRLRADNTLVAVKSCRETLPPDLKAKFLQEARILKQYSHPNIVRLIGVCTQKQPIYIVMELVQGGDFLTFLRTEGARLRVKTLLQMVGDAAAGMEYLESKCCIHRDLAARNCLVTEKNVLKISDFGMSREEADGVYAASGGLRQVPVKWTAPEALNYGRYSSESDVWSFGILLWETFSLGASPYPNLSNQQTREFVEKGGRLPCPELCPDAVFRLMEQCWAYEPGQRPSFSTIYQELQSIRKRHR
Chain of PAK2(h) (Q13177 whole entry): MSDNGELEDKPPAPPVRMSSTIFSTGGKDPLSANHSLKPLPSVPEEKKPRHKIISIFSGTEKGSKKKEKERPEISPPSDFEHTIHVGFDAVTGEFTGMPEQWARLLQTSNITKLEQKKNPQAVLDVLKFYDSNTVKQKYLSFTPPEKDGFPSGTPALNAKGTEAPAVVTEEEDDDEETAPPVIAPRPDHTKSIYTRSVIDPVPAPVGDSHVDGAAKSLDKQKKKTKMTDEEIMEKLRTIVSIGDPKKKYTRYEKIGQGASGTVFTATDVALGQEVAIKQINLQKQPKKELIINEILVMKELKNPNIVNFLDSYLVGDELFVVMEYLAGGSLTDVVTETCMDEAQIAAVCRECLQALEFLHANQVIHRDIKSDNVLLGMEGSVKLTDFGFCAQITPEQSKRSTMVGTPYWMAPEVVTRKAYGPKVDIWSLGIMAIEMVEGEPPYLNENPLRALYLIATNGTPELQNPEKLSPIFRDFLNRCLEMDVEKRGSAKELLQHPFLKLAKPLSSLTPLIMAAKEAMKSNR

| Binder | % activity (PAK2(h)) | % activity (IR(h)) | % activity (Tec(h)activated) | % activity (ARK5(h)) | % activity (Fes(h)) | % activity (PKCζ(h)) | % activity (IR(h), activated) | % activity (Hck(h) activated) | % activity (Ret(h)) | % activity (MLK1(h)) | % activity (TrkB(h)) | % activity (MSK1(h)) |
| --- | --- | --- | --- | --- | --- | --- | --- | --- | --- | --- | --- | --- |
| FAKLAARLYRKALARQLGVAA [MMI-0300] | 65% | 96% | 56% | 78% | 20% | 81% | 79% | 82% | 140% | 40% | 5% | 32% |
| KAFAKLAARLYRKALARQLGVAA [MMI-0400] | 59% | 85% | 29% | 69% | 16% | 75% | 59% | 81% | 145% | 33% | 8% | 28% |
